Consider three molecules from paper PMC4847949 (Journal of molecular biology, 2016).

To fix the notation:
B1: Lsm 169N (MBP fusion) (domain or fragment, human, UniProt P83369 1-169, looked up)
chain: MEERERGARSAGAGSPARPPSPRLDVSSDSFDPLLALYAPRLPPIPYPNAPCFNNVAEYESFLRTGVRGGGRGRGRARGAAAGSGVPAAPGPSGRTRRRPDAPAPDPERIQRLRRLMVAKEEGDGAAGAGRRGPGRSRKAPRNVLTRMPLHEGSPLGELHRCIREGVKV

The target in one assay is T1, MiniFLASH (human, UniProt Q9UKL3 1-138; Q9UKL3 1931-1982).
T1 sequence (looked up): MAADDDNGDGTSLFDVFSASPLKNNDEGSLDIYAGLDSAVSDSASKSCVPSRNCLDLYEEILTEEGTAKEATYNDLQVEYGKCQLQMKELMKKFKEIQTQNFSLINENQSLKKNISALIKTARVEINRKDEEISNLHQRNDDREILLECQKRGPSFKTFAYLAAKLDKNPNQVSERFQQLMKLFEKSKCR
Briefly: HDX-MS.

The assay “Lsm 169N (MBP fusion)” has as its target B1. Briefly: HDX-MS.

Regarding B1, the binding result with MiniFLASH is “binds”.

B2: FLASH 159N (domain or fragment, human, UniProt Q9UKL3 1-159, looked up)
chain: MAADDDNGDGTSLFDVFSASPLKNNDEGSLDIYAGLDSAVSDSASKSCVPSRNCLDLYEEILTEEGTAKEATYNDLQVEYGKAQLQMKELMKKFKEIQTQNFSLINENQSLKKNISALIKTARVEINRKDEEISNLHQRLSEFPHFRNNHKTARTFDTV
In the case of B2, the binding result with Lsm 169N (MBP fusion) is on record as “binds”.

B3: FLASH 138N (domain or fragment, human, UniProt Q9UKL3 29-138, looked up)
chain: SLDIYAGLDSAVSDSASKSCVPSRNCLDLYEEILTEEGTAKEATYNDLQVEYGKAQLQMKELMKKFKEIQTQNFSLINENQSLKKNISALIKTARVEINRKDEEISNLHQ
With B3, in the assay with Lsm 169N (MBP fusion), the binding result is on record as “binds”.
